From the PETadex activity labels (doi:10.1186/s13568-014-0044-9)

B1: unnamed (protein)
chain: MKRTLKRALSLLPAAALAASALVAASPAQAAANPYQRGPNPTEASITAARGPFNTAEITVSRLSVSGFGGGKIYYPTTTSEGTFGAIAISPGFTAYWSSLEWLGHRLASQGFVVIGIETNTTLDQPDQRGQQLLAALDYLTQRSAVRDRVDASRLAVAGHSMGGGGSLEAAKARTSLKAAIPLAPWNLDKTWPEVRTPTLIIGGELDAVAPVATHSIPFYNSLSNAPEKAYLELDNASHFFPNITNTQMAKYMIAWMKRFIDDDTRYTQFLCPPPSTGLLSDFSDARFTCPM
B2: unnamed (protein)
chain: MSLRKSFGLLSATAALVAGLVAAPPAQAAANPYQRGPDPTESLLRAARGPFAVSEQSVSRLSVSGFGGGRIYYPTTTSQGTFGAIAISPGFTASWSSLAWLGPRLASHGFVVIGIETNTRLDQPDSRGRQLLAALDYLTQRSSVRNRVDASRLAVAGHSMGGGGTLEAAKSRTSLKAAIPIAPWNLDKTWPEVRTPTLIIGGELDSIAPVATHSIPFYNSLTNAREKAYLELNNASHFFPQFSNDTMAKFMISWMKRFIDDDTRYDQFLCPPPRAIGDISDYRDTCPHT

The proteins below were run on p-NP-C4 (assay: not given). Settings: pH 8.5; 25 °C.

Row | Protein | Km | kcat | kcat/Km
1 | B1 | 83 µM | 12.4 s⁻¹ | 149000 M⁻¹ s⁻¹
2 | B2 | 88.8 µM | 2.3 s⁻¹ | 25900 M⁻¹ s⁻¹

The proteins below were run on pNPB (assay: Proxy for plastic degradation [Km]). Settings: pH 8.5.

Row | Protein | Proxy for plastic degradation
3 | B1 | 83.1 µM
4 | B2 | 88.8 µM

Each protein was assayed on pNPB (assay: Proxy for plastic degradation [kcat] (s⁻¹)). Settings: pH 8.5.

Row | Protein | Proxy for plastic degradation
5 | B1 | 12.4
6 | B2 | 2.3

Same assay, conditions: pH 8.5; 25 °C

Row | Protein | Proxy for plastic degradation
7 | B1 | 12.4
8 | B2 | 2.3

These proteins were tested on pNPB (assay: Proxy for plastic degradation [Residual activity]). Settings: pH 8.5; 50 °C; 0 h.

Row | Protein | Proxy for plastic degradation
9 | B1 | 100%
10 | B2 | 100%

Same assay, conditions: pH 8.5; 50 °C; 10 h

Row | Protein | Proxy for plastic degradation
11 | B1 | 85%
12 | B2 | 100%

Same assay, conditions: pH 8.5; 50 °C; 20 h

Row | Protein | Proxy for plastic degradation
13 | B1 | 75%
14 | B2 | 105%

Same assay, conditions: pH 8.5; 50 °C; 30 h

Row | Protein | Proxy for plastic degradation
15 | B1 | 70%
16 | B2 | 110%

Same assay, conditions: pH 8.5; 50 °C; 45 h

Row | Protein | Proxy for plastic degradation
17 | B1 | 45%
18 | B2 | 115%

Same assay, conditions: pH 8.5; 50 °C; 60 h

Row | Protein | Proxy for plastic degradation
19 | B1 | 40%
20 | B2 | 114%

Same assay, conditions: pH 8.5; 55 °C; 0 h

Row | Protein | Proxy for plastic degradation
21 | B1 | 100%
22 | B2 | 100%

Same assay, conditions: pH 8.5; 55 °C; 10 h

Row | Protein | Proxy for plastic degradation
23 | B1 | 15%
24 | B2 | 103%

Same assay, conditions: pH 8.5; 55 °C; 20 h

Row | Protein | Proxy for plastic degradation
25 | B1 | 15%
26 | B2 | 95%

Same assay, conditions: pH 8.5; 55 °C; 30 h

Row | Protein | Proxy for plastic degradation
27 | B1 | 15%
28 | B2 | 90%

Same assay, conditions: pH 8.5; 55 °C; 45 h

Row | Protein | Proxy for plastic degradation
29 | B1 | 14%
30 | B2 | 89%

Same assay, conditions: pH 8.5; 55 °C; 60 h

Row | Protein | Proxy for plastic degradation
31 | B1 | 15%
32 | B2 | 80%

Same assay, conditions: pH 8.5; 60 °C; 0 h

Row | Protein | Proxy for plastic degradation
33 | B1 | 100%
34 | B2 | 100%

Same assay, conditions: pH 8.5; 60 °C; 10 h

Row | Protein | Proxy for plastic degradation
35 | B1 | 15%
36 | B2 | 35%

Same assay, conditions: pH 8.5; 60 °C; 20 h

Row | Protein | Proxy for plastic degradation
37 | B1 | 15%
38 | B2 | 32%

Same assay, conditions: pH 8.5; 60 °C; 30 h

Row | Protein | Proxy for plastic degradation
39 | B1 | 15%
40 | B2 | 30%

Same assay, conditions: pH 8.5; 60 °C; 45 h

Row | Protein | Proxy for plastic degradation
41 | B1 | 15%
42 | B2 | 25%

Same assay, conditions: pH 8.5; 60 °C; 60 h

Row | Protein | Proxy for plastic degradation
43 | B1 | 14%
44 | B2 | 25%

What follows are proteins tested on pNPB (assay: Proxy for plastic degradation [Relative activity]). Settings: 30 °C.

Row | Protein | Proxy for plastic degradation
45 | B1 | 25%
46 | B2 | 35%

Same assay, conditions: 40 °C

Row | Protein | Proxy for plastic degradation
47 | B1 | 40%
48 | B2 | 50%

Same assay, conditions: 50 °C

Row | Protein | Proxy for plastic degradation
49 | B1 | 75%
50 | B2 | 70%

Same assay, conditions: 55 °C

Row | Protein | Proxy for plastic degradation
51 | B1 | 100%
52 | B2 | 85%

Same assay, conditions: 60 °C

Row | Protein | Proxy for plastic degradation
53 | B1 | 80%
54 | B2 | 100%

Same assay, conditions: 65 °C

Row | Protein | Proxy for plastic degradation
55 | B1 | 50%
56 | B2 | 70%

Same assay, conditions: 70 °C

Row | Protein | Proxy for plastic degradation
57 | B1 | 10%
58 | B2 | 35%

Same assay, conditions: pH 6.5

Row | Protein | Proxy for plastic degradation
59 | B1 | 10%
60 | B2 | 10%

Same assay, conditions: pH 7

Row | Protein | Proxy for plastic degradation
61 | B1 | 22%
62 | B2 | 22%

Same assay, conditions: pH 7.5

Row | Protein | Proxy for plastic degradation
63 | B1 | 55%
64 | B2 | 50%

Same assay, conditions: pH 8

Row | Protein | Proxy for plastic degradation
65 | B1 | 95%
66 | B2 | 85%

Same assay, conditions: pH 8.5

Row | Protein | Proxy for plastic degradation
67 | B1 | 100%
68 | B2 | 100%

Same assay, conditions: pH 9

Row | Protein | Proxy for plastic degradation
69 | B1 | 90%
70 | B2 | 95%

Same assay, conditions: pH 9.5

Row | Protein | Proxy for plastic degradation
71 | B1 | 65%
72 | B2 | 75%
